Test [1] has as its target IgG1 heavy chain with CH3 construct 3 (K392D, K409D, K439D) (human) [IgG part: P01857]. The experiment in a line: SDS-PAGE of protein A-purified supernatant; construct expressed alone.
Test [2] shares this target. The experiment in a line: native MS; transfection F: vector VIII alone (tetanus VH, construct 3).
Test [3] has the same target. Nature of the test: native MS; transfection E: vector VII alone (fibrinogen VH, construct 3).
Test [4] addresses IgG1 heavy chain with CH3 construct 75 (L351D, Y349D, R355D) (human) [IgG part: P01857]. Nature of the test: native MS; combination 9 co-expressed (A: VH MF1337, B: VH MF1122).
The target is the same in test [5]. The experiment in a line: SDS-PAGE of protein A-purified supernatant; construct expressed alone.
For test [6], the target named is IgG1 heavy chain with CH3 construct 6 (T366W) (human) [IgG part: P01857]. Nature of the test: native MS; transfection P: vector IX alone (tetanus VH, construct 6).
The target is the same in test [7]. The experiment in a line: SDS-PAGE of protein A-purified supernatant; construct expressed alone.
For test [8], the target named is IgG1 heavy chain with CH3 construct 77 (L351R) (human) [IgG part: P01857]. Nature of the test: native MS; combination 1 co-expressed (A: VH MF1337, B: VH MF1122).
Test [9] has as its target IgG1 heavy chain with CH3 construct 78 (T366E) (human) [IgG part: P01857]. Described as above.
Test [10] has the same target. Nature of the test: SDS-PAGE of protein A-purified supernatant; construct expressed alone.
For test [11], the target named is IgG1 heavy chain with CH3 construct 73 (L351D, Y349E, L368E) (human) [IgG part: P01857]. Nature of the test: native MS; combination 6 co-expressed (A: VH MF1337, B: VH MF1122).
For test [12] the target is unchanged. The experiment in a line: SDS-PAGE of protein A-purified supernatant; construct expressed alone.
The target of test [13] is IgG1 heavy chain with CH3 construct 77 (L351R) (human) [IgG part: P01857]. The experiment in a line: native MS; combination 16 co-expressed (A: VH MF1337, B: VH MF1122).
For test [14] the target is unchanged. Nature of the test: SDS-PAGE of protein A-purified supernatant; construct expressed alone.
Test [15] has as its target IgG1 heavy chain with CH3 construct 70 (L351E, Y349E) (human) [IgG part: P01857]. Nature of the test: native MS; combination 4 co-expressed (A: VH MF1337, B: VH MF1122).
The target is the same in test [16]. Nature of the test: SDS-PAGE of protein A-purified supernatant; construct expressed alone.
The target of test [17] is IgG1 heavy chain with CH3 construct 76 (L351K, L368K) (human) [IgG part: P01857]. Nature of the test: native MS; combination 15 co-expressed (A: VH MF1337, B: VH MF1122).
The target is the same in test [18]. The experiment in a line: SDS-PAGE of protein A-purified supernatant; construct expressed alone.
The target in test [19] is IgG1 heavy chain with CH3 construct 2 (K392D, K409D) (human) [IgG part: P01857]. The experiment in a line: native MS; transfection D: vector VI alone (tetanus VH, construct 2).
Test [20] has the same target. Nature of the test: SDS-PAGE of protein A-purified supernatant; construct expressed alone.
Test [21] shares this target. Nature of the test: native MS; transfection C: vector V alone (fibrinogen VH, construct 2).
Test [22] deals with IgG1 heavy chain with CH3 construct 79 (T366R) (human) [IgG part: P01857]. Nature of the test: native MS; combination 14 co-expressed (A: VH MF1337, B: VH MF1122).
In test [23] the target is IgG1 heavy chain with CH3 construct 80 (L351E) (human) [IgG part: P01857]. The test is described as above.
Test [24] addresses IgG1 heavy chain with CH3 construct 79 (T366R) (human) [IgG part: P01857]. The experiment in a line: SDS-PAGE of protein A-purified supernatant; construct expressed alone.
Test [25] deals with IgG1 heavy chain with CH3 construct 80 (L351E) (human) [IgG part: P01857]. The experiment in a line: native MS; combination 13 co-expressed (A: VH MF1337, B: VH MF1122).
For test [26] the target is unchanged. The experiment in a line: SDS-PAGE of protein A-purified supernatant; construct expressed alone.
Test [27] has as its target IgG1 heavy chain with CH3 construct 7 (T366S, L368A, Y407V) (human) [IgG part: P01857]. Described as above.
Test [28] has the same target. Nature of the test: native MS; transfection Q: vector X alone (thyroglobulin VH, construct 7).
Test [29] deals with IgG1 heavy chain with CH3 construct 71 (L351D, Y349E) (human) [IgG part: P01857]. The experiment in a line: native MS; combination 5 co-expressed (A: VH MF1337, B: VH MF1122).
Test [30] shares this target. Nature of the test: native MS; combination 11 co-expressed (A: VH MF1337, B: VH MF1122).
Test [31] has the same target. The experiment in a line: SDS-PAGE of protein A-purified supernatant; construct expressed alone.
Test [32] deals with IgG1 heavy chain with CH3 construct 74 (L351D, Y349D) (human) [IgG part: P01857]. The experiment in a line: native MS; combination 10 co-expressed (A: VH MF1337, B: VH MF1122).
Test [33] shares this target. Nature of the test: SDS-PAGE of protein A-purified supernatant; construct expressed alone.

The values below come from patent publication US20150139996A1.

In test [1], “IgG1 heavy chain with CH3 construct 3 (K392D, K409D, K439D) (from UniProt P01857-1)” came in with a % IgG of 24.5% and a % half molecule of 75.5%. Further, in test [2], the Full IgG found (%) turned out to be 36% and the Half molecules found (%) amounted to 64%. In addition, in test [3], the Full IgG found (%) was determined as 24% and the Half molecules found (%) came to 76%.

Regarding “IgG1 heavy chain with CH3 construct 75 (L351D, Y349D, R355D) (from UniProt P01857-1)”, in test [4], the % BB found turned out to be 2%. In [5], this substance had a % IgG of 89.9% and a % half molecule of 10.1%.

As to “IgG1 heavy chain with CH3 construct 6 (T366W) (from UniProt P01857-1)”, in test [6], the Full IgG found (%) is 18% and the Half molecules found (%) worked out at 82%. Moreover, in test [7], the % IgG is 27.6% and the % half molecule is 72.4%.

As for “IgG1 heavy chain with CH3 construct 78 (T366E) (from UniProt P01857-1)”, in test [8], the % AB found is 81%. Also, the % AA found in [9] was found to be 3%. Also, in test [10], the % IgG came out at 44.4% and the % half molecule is 55.6%.

“IgG1 heavy chain with CH3 construct 73 (L351D, Y349E, L368E) (from UniProt P01857-1)”: in test [11], the % BB found was 1%. In [12], this substance registered a % IgG of 79.3% and a % half molecule of 20.7%.

With “IgG1 heavy chain with CH3 construct 77 (L351R) (from UniProt P01857-1)”, the % BB found in test [8] was found to be 2%; in [13], 1%. The substance further registered a % IgG in [14] of 100%.

Consider “IgG1 heavy chain with CH3 construct 70 (L351E, Y349E) (from UniProt P01857-1)”, for which, in [15], the % BB found was found to be 0%. Besides, in [16], the % IgG stood at 67.8% and the % half molecule turned out to be 32.2%.

With “IgG1 heavy chain with CH3 construct 76 (L351K, L368K) (from UniProt P01857-1)”, the % BB found in [17] amounted to 2.5%. In test [18], this substance gave a % IgG of 56.6% and a % half molecule of 43.4%.

Consider “IgG1 heavy chain with CH3 construct 2 (K392D, K409D) (from UniProt P01857-1)”, for which, in [19], the Full IgG found (%) stood at 77% and the Half molecules found (%) came to 23%. Further, in test [20], the % IgG was determined as 30.9% and the % half molecule amounted to 69.1%. In [21], this substance had a Full IgG found (%) of 23% and a Half molecules found (%) of 77%.

On to “IgG1 heavy chain with CH3 construct 79 (T366R) (from UniProt P01857-1)”, for which the % AA found in test [22] was found to be 4%. Moreover, the % AB found in [23] amounted to 38%. For the same substance, in [24], the % IgG is 29.6% and the % half molecule was 70.4%.

In the case of “IgG1 heavy chain with CH3 construct 80 (L351E) (from UniProt P01857-1)”, the figures for the % BB found in test [25] and in [23] were 10% and 36%, respectively. The % IgG in [26] was 100%.

“IgG1 heavy chain with CH3 construct 7 (T366S, L368A, Y407V) (from UniProt P01857-1)”: in [27], the % IgG came to 58.6% and the % half molecule came to 41.4%. In test [28], this substance came in with a Full IgG found (%) of 42% and a Half molecules found (%) of 58%.

“IgG1 heavy chain with CH3 construct 71 (L351D, Y349E) (from UniProt P01857-1)”: the figures for the % BB found in test [29] and in [30] were 1% and 0%, respectively. The substance also showed a % IgG in [31] of 79.7%. The substance also gave a % half molecule in test [31] of 20.3%.

Take “IgG1 heavy chain with CH3 construct 74 (L351D, Y349D) (from UniProt P01857-1)”: the % BB found in test [32] was 1%. In test [33], the % IgG is 88.6% and the % half molecule came out at 11.4%.
